B1: huMA79b graft variant SEQ ID NO: 51 (Fab, name in Kabat numbering, V domains shown)
VH: EVQLVESGGGLVQPGGSLRLSCAASGYTFSSYWIEWVRQAPGKGLEWVGEILPGGGDTNYNEIFKGRFTISADTSKNTAYLQMNSLRAEDTAVYYCTRRVPVYFDYWGQGTLVTVSS
VL: DIQMTQSPSSLSASVGDRVTITCKASQSVDYDGDSFLNWYQQKPGKAPKLLIYAASNLESGVPSRFSGSGSGTDFTLTISSLQPEDFATYYCNNSNGDPLNFGQGTKVEIKR
notes: Fab on phage; rest as huMA79b graft
B2: huMA79b graft variant SEQ ID NO: 63 (Fab, name in Kabat numbering, V domains shown)
VH: EVQLVESGGGLVQPGGSLRLSCAASGYTFKKYWIEWVRQAPGKGLEWVGEILPGGGDTNYNEIFKGRFTISADTSKNTAYLQMNSLRAEDTAVYYCTRRVPVYFDYWGQGTLVTVSS
VL: DIQMTQSPSSLSASVGDRVTITCKASQSVDYDGDSFLNWYQQKPGKAPKLLIYAASNLESGVPSRFSGSGSGTDFTLTISSLQPEDFATYYCQQSNEDPLTFGQGTKVEIKR
notes: as for B1
B3: huMA79b graft variant SEQ ID NO: 68 (Fab, name in Kabat numbering, V domains shown)
VH: EVQLVESGGGLVQPGGSLRLSCAASGYGFTSYWISWVRQAPGKGLEWVGEILPGGGDTNYNEIFKGRFTISADTSKNTAYLQMNSLRAEDTAVYYCTRRVPVYFDYWGQGTLVTVSS
VL: DIQMTQSPSSLSASVGDRVTITCKASQSVDYDGDSFLNWYQQKPGKAPKLLIYAASNLESGVPSRFSGSGSGTDFTLTISSLQPEDFATYYCQQSNEDPLTFGQGTKVEIKR
notes: as for B1
B4: huMA79b graft variant SEQ ID NO: 62 (Fab, name in Kabat numbering, V domains shown)
VH: EVQLVESGGGLVQPGGSLRLSCAASGYPFGRYWVNWVRQAPGKGLEWVGEILPGGGDTNYNEIFKGRFTISADTSKNTAYLQMNSLRAEDTAVYYCTRRVPVYFDYWGQGTLVTVSS
VL: DIQMTQSPSSLSASVGDRVTITCKASQSVDYDGDSFLNWYQQKPGKAPKLLIYAASNLESGVPSRFSGSGSGTDFTLTISSLQPEDFATYYCQQSNEDPLTFGQGTKVEIKR
notes: as for B1
B5: huMA79b graft variant SEQ ID NO: 65 (Fab, name in Kabat numbering, V domains shown)
VH: EVQLVESGGGLVQPGGSLRLSCAASGYPFRRYWIEWVRQAPGKGLEWVGEILPGGGDTNYNEIFKGRFTISADTSKNTAYLQMNSLRAEDTAVYYCTRRVPVYFDYWGQGTLVTVSS
VL: DIQMTQSPSSLSASVGDRVTITCKASQSVDYDGDSFLNWYQQKPGKAPKLLIYAASNLESGVPSRFSGSGSGTDFTLTISSLQPEDFATYYCQQSNEDPLTFGQGTKVEIKR
notes: as for B1
B6: huMA79b graft variant SEQ ID NO: 59 (Fab, name in Kabat numbering, V domains shown)
VH: EVQLVESGGGLVQPGGSLRLSCAASGYSFKSYWIEWVRQAPGKGLEWVGEILPGGGDTNYNEIFKGRFTISADTSKNTAYLQMNSLRAEDTAVYYCTRRVPVYFDYWGQGTLVTVSS
VL: DIQMTQSPSSLSASVGDRVTITCKASQSVDYDGDSFLNWYQQKPGKAPKLLIYAASNLESGVPSRFSGSGSGTDFTLTISSLQPEDFATYYCQQSNEDPLTFGQGTKVEIKR
notes: as for B1
B7: huMA79b graft variant SEQ ID NO: 52 (Fab, name in Kabat numbering, V domains shown)
VH: EVQLVESGGGLVQPGGSLRLSCAASGYTFSSYWIEWVRQAPGKGLEWVGEILPGGGDTNYNEIFKGRFTISADTSKNTAYLQMNSLRAEDTAVYYCTRRVPVYFDYWGQGTLVTVSS
VL: DIQMTQSPSSLSASVGDRVTITCKASQSVDYDGDSFLNWYQQKPGKAPKLLIYAASNLESGVPSRFSGSGSGTDFTLTISSLQPEDFATYYCQPDNEAPRTFGQGTKVEIKR
notes: as for B1
B8: huMA79b graft variant SEQ ID NO: 56 (Fab, name in Kabat numbering, V domains shown)
VH: EVQLVESGGGLVQPGGSLRLSCAASGYPFTSYWINWVRQAPGKGLEWVGEILPGGGDTNYNEIFKGRFTISADTSKNTAYLQMNSLRAEDTAVYYCTRRVPVYFDYWGQGTLVTVSS
VL: DIQMTQSPSSLSASVGDRVTITCKASQSVDYDGDSFLNWYQQKPGKAPKLLIYAASNLESGVPSRFSGSGSGTDFTLTISSLQPEDFATYYCQQSNEDPLTFGQGTKVEIKR
notes: as for B1
B9: huMA79b graft variant SEQ ID NO: 66 (Fab, name in Kabat numbering, V domains shown)
VH: EVQLVESGGGLVQPGGSLRLSCAASGYPVGRYWISWVRQAPGKGLEWVGEILPGGGDTNYNEIFKGRFTISADTSKNTAYLQMNSLRAEDTAVYYCTRRVPVYFDYWGQGTLVTVSS
VL: DIQMTQSPSSLSASVGDRVTITCKASQSVDYDGDSFLNWYQQKPGKAPKLLIYAASNLESGVPSRFSGSGSGTDFTLTISSLQPEDFATYYCQQSNEDPLTFGQGTKVEIKR
notes: as for B1
B10: huMA79b graft variant SEQ ID NO: 69 (Fab, name in Kabat numbering, V domains shown)
VH: EVQLVESGGGLVQPGGSLRLSCAASGYTFTSYWLSWVRQAPGKGLEWVGEILPGGGDTNYNEIFKGRFTISADTSKNTAYLQMNSLRAEDTAVYYCTRRVPVYFDYWGQGTLVTVSS
VL: DIQMTQSPSSLSASVGDRVTITCKASQSVDYDGDSFLNWYQQKPGKAPKLLIYAASNLESGVPSRFSGSGSGTDFTLTISSLQPEDFATYYCQQSNEDPLTFGQGTKVEIKR
notes: as for B1
B11: huMA79b graft variant SEQ ID NO: 53 (Fab, name in Kabat numbering, V domains shown)
VH: EVQLVESGGGLVQPGGSLRLSCAASGYTFSSYWIEWVRQAPGKGLEWVGEILPGGGDTNYNEIFKGRFTISADTSKNTAYLQMNSLRAEDTAVYYCTRRVPVYFDYWGQGTLVTVSS
VL: DIQMTQSPSSLSASVGDRVTITCKASQSVDYDGDSFLNWYQQKPGKAPKLLIYAASNLESGVPSRFSGSGSGTDFTLTISSLQPEDFATYYCDQRNADPLTFGQGTKVEIKR
notes: as for B1
B12: huMA79b graft variant SEQ ID NO: 61 (Fab, name in Kabat numbering, V domains shown)
VH: EVQLVESGGGLVQPGGSLRLSCAASGYYFTSYWIEWVRQAPGKGLEWVGEILPGGGDTNYNEIFKGRFTISADTSKNTAYLQMNSLRAEDTAVYYCTRRVPVYFDYWGQGTLVTVSS
VL: DIQMTQSPSSLSASVGDRVTITCKASQSVDYDGDSFLNWYQQKPGKAPKLLIYAASNLESGVPSRFSGSGSGTDFTLTISSLQPEDFATYYCQQSNEDPLTFGQGTKVEIKR
notes: as for B1
B13: huMA79b graft variant SEQ ID NO: 55 (Fab, name in Kabat numbering, V domains shown)
VH: EVQLVESGGGLVQPGGSLRLSCAASGYPFRSYWIQWVRQAPGKGLEWVGEILPGGGDTNYNEIFKGRFTISADTSKNTAYLQMNSLRAEDTAVYYCTRRVPVYFDYWGQGTLVTVSS
VL: DIQMTQSPSSLSASVGDRVTITCKASQSVDYDGDSFLNWYQQKPGKAPKLLIYAASNLESGVPSRFSGSGSGTDFTLTISSLQPEDFATYYCQQSNEDPLTFGQGTKVEIKR
notes: as for B1
B14: huMA79b graft variant SEQ ID NO: 64 (Fab, name in Kabat numbering, V domains shown)
VH: EVQLVESGGGLVQPGGSLRLSCAASGYPFTSYWIQWVRQAPGKGLEWVGEILPGGGDTNYNEIFKGRFTISADTSKNTAYLQMNSLRAEDTAVYYCTRRVPVYFDYWGQGTLVTVSS
VL: DIQMTQSPSSLSASVGDRVTITCKASQSVDYDGDSFLNWYQQKPGKAPKLLIYAASNLESGVPSRFSGSGSGTDFTLTISSLQPEDFATYYCQQSNEDPLTFGQGTKVEIKR
notes: as for B1
B15: huMA79b graft variant SEQ ID NO: 58 (Fab, name in Kabat numbering, V domains shown)
VH: EVQLVESGGGLVQPGGSLRLSCAASGYTFNRYWINWVRQAPGKGLEWVGEILPGGGDTNYNEIFKGRFTISADTSKNTAYLQMNSLRAEDTAVYYCTRRVPVYFDYWGQGTLVTVSS
VL: DIQMTQSPSSLSASVGDRVTITCKASQSVDYDGDSFLNWYQQKPGKAPKLLIYAASNLESGVPSRFSGSGSGTDFTLTISSLQPEDFATYYCQQSNEDPLTFGQGTKVEIKR
notes: as for B1

The binders below were run against T1, extracellular domain of human CD79b (human, UniProt P40259 29-159) (assay: phage selection, Fab on phage, plate-bound huCD79becd).
T1 construct: also called huCD79becd; huCD79b-ecd
T1 sequence: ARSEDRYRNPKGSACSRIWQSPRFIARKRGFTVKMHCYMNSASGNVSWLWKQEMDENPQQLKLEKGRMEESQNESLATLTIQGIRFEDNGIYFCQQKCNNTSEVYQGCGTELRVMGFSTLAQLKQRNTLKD
B1: binds.
B2: binds.
B3: binds.
B4: binds.
B5: binds.
B6: binds.
B7: binds.
B8: binds.
B9: binds.
B10: binds.
B11: binds.
B12: binds.
B13: binds.
B14: binds.
B15: binds.

— USRE48558 (Genentech, dated 2021)
